# Measured values: patent publication US20240287172A1 (SCIRHOM, published 2024)
# T1: human iRhom2, endogenously expressed (human, UniProt Q6PJF5 1-856)
# T1 sequence: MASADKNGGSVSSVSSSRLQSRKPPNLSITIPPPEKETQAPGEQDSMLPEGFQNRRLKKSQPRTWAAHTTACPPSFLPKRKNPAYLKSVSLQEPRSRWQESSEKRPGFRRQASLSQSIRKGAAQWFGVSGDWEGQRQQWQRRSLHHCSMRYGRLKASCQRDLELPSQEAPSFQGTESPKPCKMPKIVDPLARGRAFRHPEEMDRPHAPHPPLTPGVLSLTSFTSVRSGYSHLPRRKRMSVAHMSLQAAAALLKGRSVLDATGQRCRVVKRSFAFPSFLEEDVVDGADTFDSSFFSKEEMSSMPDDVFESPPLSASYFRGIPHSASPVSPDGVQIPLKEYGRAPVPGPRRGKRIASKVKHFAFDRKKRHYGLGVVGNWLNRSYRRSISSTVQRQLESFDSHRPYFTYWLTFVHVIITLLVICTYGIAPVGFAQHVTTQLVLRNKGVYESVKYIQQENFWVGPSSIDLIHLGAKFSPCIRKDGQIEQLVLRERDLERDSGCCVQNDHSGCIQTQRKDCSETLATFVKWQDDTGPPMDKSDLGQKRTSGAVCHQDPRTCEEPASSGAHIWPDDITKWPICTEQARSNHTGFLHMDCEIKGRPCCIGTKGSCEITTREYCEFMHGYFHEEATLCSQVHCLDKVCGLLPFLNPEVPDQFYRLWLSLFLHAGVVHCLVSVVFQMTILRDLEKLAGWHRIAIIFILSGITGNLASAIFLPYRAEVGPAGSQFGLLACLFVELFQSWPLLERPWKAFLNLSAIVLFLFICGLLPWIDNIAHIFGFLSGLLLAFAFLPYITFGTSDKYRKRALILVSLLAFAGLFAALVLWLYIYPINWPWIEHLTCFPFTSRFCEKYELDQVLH
# T2: dog iRhom2 full length wild type, T7-tagged (dog, UniProt Q00M95 1-827)
# T2 construct: whole, on cells; on MEF-DKO cells; also called Dog-iR2-FL-WT-T7
# T2 sequence: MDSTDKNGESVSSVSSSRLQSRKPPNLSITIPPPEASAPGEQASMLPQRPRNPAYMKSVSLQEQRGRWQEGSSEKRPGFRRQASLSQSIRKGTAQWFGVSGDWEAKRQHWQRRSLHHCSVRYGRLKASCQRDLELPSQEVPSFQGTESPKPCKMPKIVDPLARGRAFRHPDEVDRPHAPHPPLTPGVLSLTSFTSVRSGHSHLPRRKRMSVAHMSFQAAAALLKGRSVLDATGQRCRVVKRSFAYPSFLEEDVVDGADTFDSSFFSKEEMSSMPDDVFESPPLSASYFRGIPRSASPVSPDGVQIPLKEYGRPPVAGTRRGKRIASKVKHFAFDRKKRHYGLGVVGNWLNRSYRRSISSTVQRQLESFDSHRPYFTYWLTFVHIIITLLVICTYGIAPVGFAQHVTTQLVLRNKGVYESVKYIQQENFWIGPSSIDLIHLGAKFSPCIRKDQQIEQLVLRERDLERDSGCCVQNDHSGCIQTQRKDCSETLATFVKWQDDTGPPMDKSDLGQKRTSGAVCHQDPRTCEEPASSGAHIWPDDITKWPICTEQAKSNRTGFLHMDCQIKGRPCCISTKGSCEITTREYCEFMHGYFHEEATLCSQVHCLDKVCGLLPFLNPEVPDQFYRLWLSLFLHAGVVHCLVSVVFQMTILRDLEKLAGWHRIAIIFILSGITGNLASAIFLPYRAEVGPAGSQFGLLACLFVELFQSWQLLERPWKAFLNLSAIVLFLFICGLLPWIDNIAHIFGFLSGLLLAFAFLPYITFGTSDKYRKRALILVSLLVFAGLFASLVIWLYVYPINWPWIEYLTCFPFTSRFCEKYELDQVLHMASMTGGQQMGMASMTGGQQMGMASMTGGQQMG
# Experiments:
# [1] = biological target: T1, human iRhom2, endogenously expressed; assay: cell-based or functional assay
# [2] = biological target: T2, dog iRhom2 full length wild type, …; assay: FACS, MEF-DKO cells; via representative antibody 16
# Protocol: In brief, immortalized MEF-DKO-EV control cells, MEF-DKO-rhesus-iR2-FL-WT-T7 cells, MEF-DKO-cyno-iR2-FL-WT-T7 cells, MEF-DKO-dog-iR2-FL-WT-T7 cells and MEF-DKO-rabbit-iR2-FL-WT-T7 cells, as well as their respective iRhom1 counterparts, were harvested with 10 mM EDTA in PBS, washed and resuspended in FACS buffer (PBS, 3% FBS, 0.05% sodium azide), and seeded in Nunc U-bottom 96-well plates (Thermo Fisher Scientific, USA) at approximately 3×10⁵ cells per well. To pellet cells and remove supernatants, the plates were centrifuged at 1,500 rpm and 4° C. for 3 minutes. For primary staining, cells were resuspended in 100 μl per well of either FACS buffer alone (controls), mouse monoclonal anti-T7 IgG (Merck Millipore, USA) at 3 μg/ml FACS buffer or the antibodies of the invention also at 3 μg/ml FACS buffer and incubated on ice for 1 hour.
# Afterwards, plates were centrifuged at 1,500 rpm and 4° C. for 3 minutes and washed twice with 200 μl per well of FACS buffer. For secondary staining, cells were spun down and resuspended in 100 μl per well of PE-conjugated goat anti-mouse IgG F(ab′)2 detection fragment (Dianova, Germany) diluted 1:100 in FACS buffer. Protected from light, the cell suspensions were incubated on ice for 1 hour. Plates were then centrifuged at 1,500 rpm and 4° C. for 3 minutes and washed three times with 200 μl per well of FACS buffer. Finally, cells were resuspended in 150 μl per well of FACS buffer and analyzed using a BD Accuri™ C6 Plus flow cytometer (Becton Dickinson, Germany).
Binder,"LPS-induced TNFα release from PBMCs of healthy donors, percent inhibition, 1 µg/ml [1] [%]","LPS-induced TNFα release from THP-1 cells, percent inhibition, 10 µg/ml, hybridoma-purified [1] [%]","LPS-induced TNFα release from THP-1 cells, percent inhibition, recombinant antibody [1] [%]","LPS-induced TNFα release from human macrophages of healthy donors, percent inhibition, 10 µg/ml [1] [%]","PMA-induced HB-EGF release from PBMCs of healthy donors, percent inhibition, 1 µg/ml [1] [%]","PMA-induced HB-EGF release from THP-1 cells, percent inhibition, 3 µg/ml [1] [%]","PMA-induced HB-EGF release from U-937 cells, percent inhibition [1] [%]","PMA-induced IL-6R release from PBMCs of healthy donors, percent inhibition, 1 µg/ml [1] [%]","PMA-induced IL-6R release from THP-1 cells, percent inhibition, 1 µg/ml [1] [%]","PMA-induced IL-6R release from U-937 cells, percent inhibition, 1 µg/ml [1] [%]","PMA-induced IL-6R release from U-937 cells, percent inhibition, 3 µg/ml [1] [%]","PMA-induced TGFα release from PC3 cells, percent inhibition, 1 µg/ml [1] [%]","PMA-induced TNFα release from U-937 cells, percent inhibition, 1 µg/ml [1] [%]","PMA-induced TNFα release from U-937 cells, percent inhibition, 3 µg/ml [1] [%]",binding result [2]
"antibody 16 (antibody, V domains shown, mouse IgG, kappa light chain; also called clone #16; purified antibody 16) VH: QVTLKESGPGILQPSQTLSLTCSFSGFSLSTFALGVGWIRQPSGRGLEWLAHIWWDDDKYYNPALKSRLTISKDTSKNHVFLKIANVDTADTATYYCARITTYYYGMDYWGQGTSVTVSS VL: DIVLSQSPATLSVTPGDSVSLFCRASQSIGNHLHWYQQESHASPRLLIKYASQSISGIPSRFSGSGSGTDFTLSINSVETEDFGMYFCQQSYNWPLTFGAGTKLELK",81.3,65.4,70.7,85.8,71.6,71.9,99.6,84.3,72.5,77.7,77.4,13.9,91.6,91.9,
"antibody 51 (antibody, V domains shown, mouse IgG, kappa light chain; also called clone #51) VH: QVQLQQSGAELVKPGASVKISCKASGYTFSNYWMNWVKQRPGKGLEWIGQIYPGDGDTKYNGKFKNKATLTADKSSSTAYMQFSSLTSEDSAVYFCARGDLVFVYWGLGTLVTVSA VL: DVQITQSPSYLAVSPGETITINCRASKNIRKYLAWYQEKPGKTNKLLIYSGSTSQSGVPSRFSGSGSGTDFTLTISSLEPEDFAMYYCQQHNEYPYTFGGGTKLEIK",,,,,,,,,,,,,,,binds
"antibody 5 (antibody, V domains shown, mouse IgG, kappa light chain; also called clone #5; purified antibody 5) VH: QVTLKESGPGILQPSQTLSLTCSFSGFSLSTFGMGVGWIRQPSGKGLEWLAHIWWDDEKYYNSALKSRLTISKATSKNQAFLKIANVDTADTATYYCARISNYGSNYWYFNVWGTGTTVTVSS VL: QVVLTQSPALMSASPGEKVTMTCSAGSSVSCMYWYQQKPGSSPRVLIYDTSNLASGVPARFTGSGSGTSYSLTISRMEAEDAASYYCQQWNSYPLTFGAGTKLELK",,69,70.5,,,,,,64.1,67,,,63.6,,binds
"antibody 42 (antibody, V domains shown, mouse IgG, kappa light chain; also called clone #42; purified antibody 42) VH: QVTLKESGPGILQPSQTLSLTCSLSGFSLSTFGRGVGWIRQPSGKGLEWLAHIWWDDEKYYNPALKSRLTISKDTSKNQVFLRIANVDTADTATYYCARIQNYGSNYWYFDVWGTGTTVTVSS VL: LIVLTQSPAIMSASPGEKVTMTCGATSRISYMFWYQQKPGSSPRVLIYDTSNLASGVPVRFSGSGSGTSYSLTISRVEAEDVATYYCQQWNSYPLTFGAGTKLELK",77,76.7,75.9,93.2,77.6,76.6,104,85,85.9,80.8,84.4,14.3,94.5,94.1,binds
"antibody 22 (antibody, V domains shown, mouse IgG, kappa light chain; also called clone #22; purified antibody 22) VH: QVTLKESGPGILQPSQTLSLTCSFSGFSLSTFGMGVGWIRQPSGKGLEWLAHIWWDDEKYYNSALKSRLTISKATSKNQVFLKIANVDTADTATYYCARISNYGSNYWYFNVWGTGTTVTVSS VL: QVVLTQSPALMSASPGEKVTMTCSAGSSVSYMYWYQQKPGSSPRVLIYDTSNLASGVPARFTGSGSGTSYSLTISRMEAEDAATYYCQQWNSYPLTFGAGTKLELK",72.8,78.8,78.4,78.8,56.5,77.7,101,79.3,67.4,74.5,79,12.7,86.1,93.1,binds
"antibody 48 (antibody, V domains shown, mouse IgG, kappa light chain; also called clone #48; purified antibody 48) VH: QVQLQQSGTELVRPGTSVKVSCKASGYAFTNYLIEWVKQRPGQGLEWIGVINPGSGFTKYNEKFKGKATLTADKSSSTVYMHLSSLTSEDSAVYFCARGLYRAMDYWGQGTSVTVSS VL: DIQMTQSPASQSASLGESVTITCLASQTIATWLAWYQQKPGKSPQLLIYGATTLADGVPSRFSGGGSGTKFSFKISSLQAEDFVSYYCQQLYSTPYTFGGGTKLEIK",,,,,,,,,,,,,,,binds
"antibody 47 (antibody, V domains shown, mouse IgG, kappa light chain; also called clone #47) VH: QVQLQQSGAELVRPGTSVKVSCKASGYAFTNYLIEWVKQRPGQGLEWIGVINPGSGFTNYNEKFKGKAILNADKSSSTAYMQLISLTSEDSAVYFCARDLKRAMDHWGQGTSVTVSS VL: DIQMTQSPASQSASLGESVTITCLASQTIGTWLAWYQQKPGKSPQLLIHAATSLADGVPSRFSGSGSGTKFSFKISSLQAEDFVSYYCQQIYSSPYTFGGGTKLEIK",,,,,,,,,,,,,,,binds
"antibody 50 (antibody, V domains shown, mouse IgG, kappa light chain; also called clone #50; purified antibody 50) VH: QVQLQQSGAELVRPGASVKVSCKASGYAFSNYLIEWVKQRPGQGLEWIGVINPGSGFTKYNEKFKGKATLTADKSSSTAYMQLSSLTSEDSAVYFCARGLYRAMDYWGQGTSVTVSS VL: DIQMTQSPASQSASLGESVTITCLASQTIGTWLAWYQQKPGKSPQLLIYAAASLADGVPSRFSGGGSGTKFSFKISSLQAEDFVNYYCQQIYSTPYTFGGGTKLEIK",,,,,,,,,,,,,,,binds
